Measured values reported in paper doi:10.1101/444885 (bioRxiv, 2018).
Residue numbers refer to the chain shown, from its start. Names and notes keep the numbering of the source. Read-outs that look alike come from different tables or passages of the source.

T1: DnaD DDBH2 domain (residues 129-232) (Bacillus subtilis, UniProt P39787 129-232)
T1 sequence: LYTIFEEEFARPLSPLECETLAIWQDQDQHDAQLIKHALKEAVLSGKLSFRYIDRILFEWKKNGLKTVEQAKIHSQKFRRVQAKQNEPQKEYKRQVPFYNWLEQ

B1: DnaA domain I (residues 1-81) (domain or fragment)
chain: MENILDLWNQALAQIEKKLSKPSFETWMKSTKAHSLQGDTLTITAPNEFARDWLESRYLHLIADTIYELTGEELSIKFVIP
B2: DnaD (full length) (natural protein)
chain: MKKQQFIDMQEQGTSTIPNLLLTHYKQLGLNETELILLLKIKMHLEKGSYFPTPNQLQEGMSISVEECTNRLRMFIQKGFLFIEECEDQNGIKFEKYSLQPLWGKLYEYIQLAQNQTQERKAEGEQKSLYTIFEEEFARPLSPLECETLAIWQDQDQHDAQLIKHALKEAVLSGKLSFRYIDRILFEWKKNGLKTVEQAKIHSQKFRRVQAKQNEPQKEYKRQVPFYNWLEQ
B3: truncated DnaD DDBH2 domain (residues 129-196) (domain or fragment)
chain: LYTIFEEEFARPLSPLECETLAIWQDQDQHDAQLIKHALKEAVLSGKLSFRYIDRILFEWKKNGLKTV
B4: DnaA N191C, labelled with Cy3B or Atto647N (natural protein)
chain: MENILDLWNQALAQIEKKLSKPSFETWMKSTKAHSLQGDTLTITAPNEFARDWLESRYLHLIADTIYELTGEELSIKFVIPQNQDVEDFMPKPQVKKAVKEDTSDFPQNMLNPKYTFDTFVIGSGNRFAHAASLAVAEAPAKAYNPLFIYGGVGLGKTHLMHAIGHYVIDHNPSAKVVYLSSEKFTNEFICSIRDNKAVDFRNRYRNVDVLLIDDIQFLAGKEQTQEEFFHTFNTLHEESKQIVISSDRPPKEIPTLEDRLRSRFEWGLITDITPPDLETRIAILRKKAKAEGLDIPNEVMLYIANQIDSNIRELEGALIRVVAYSSLINKDINADLAAEALKDIIPSSKPKVITIKEIQRVVGQQFNIKLEDFKAKKRTKSVAFPRQIAMYLSREMTDSSLPKIGEEFGGRDHTTVIHAHEKISKLLADDEQLQQHVKEIKEQLK
B5: DnaA(N191C/A198C) (natural protein)
chain: B4 chain with A198C
B6: DnaA A198C, labelled with Cy3B or Atto647N (natural protein)
chain: B4 chain with C191N, A198C
modifications: Cy3B-maleimide or Atto647N-maleimide on the cysteine at 198

Key:
[1] = target: T1, DnaD DDBH2 domain (residues 129-232); test: NMR titration
[2] = target: T1, DnaD DDBH2 domain (residues 129-232); test: NMR titration; remark: listed apart in the source
DnaA(N191C/A198C) = target: B5; test: loss and rescue of BMOE cross-linking of DnaA-DNA filaments
[3] = target: B1; test: NMR titration
FRET or BRET = target: the molecule itself; test: FRET or BRET
cross-linking = target: the molecule itself; test: cross-linking

B1 showed a Kd [1] of 665 ± 251 µM and a Kd [2] of 768 ± 168 µM.

B2: binds (DnaA(N191C/A198C)).

B3: binds [3].

B4: binds (FRET or BRET).

B5: binds (cross-linking).

B6: binds (FRET or BRET).
